Data reported in a protein production outcome set (Wang et al. 2014).

Assay: label from the status in PepcDB records

## MVVETIERSCEGSKRRHVNGGDIAVPCSGEECSNGDINVAPGVSAKRARVSREMTFEDIYGADALLNDDDDEDDDCDWEPVQAPMEFVKWCCVNCTMSNPGDMVHCCICGEHKESGILRHGYLASPFFKDTGLIEVEEKYGGSSSATSSTAVGFDERMLLHSEFEVKAQPHPERPDRLRAIAASLATAGVFPGRCLPINAREITKQELQMVHTSEHVDAVDTTSQLLYSYFTSDTYANEYSARAARLAAGLCADLATDIFTGRVKNGFALVRPPGHHAGVRHAMGFCLHNNAAVAALVAQAAGAKKVLIVDWDVHHGNGTQEIFEQNKSVLYISLHRHEGGNFYPGTGAADEVGSNGGEGYCVNVPWSCGGVGDKDYIFAFQHVVLPIASAFSPDFVIISAGFDAARGDPLGCCDVTPAGYSRMTQMLGDLCGGKMLVILEGGYNLRSISASATAVIKVLLGENPENELPIATTPSVAGLQTVLDVLNIQLEFWPSLAISYSKLLSELEARLIENKSEKSDEKEGCSGSDMVEMGTKEAFVQLSLGSYDFKIKVILESILPNPS
  protein production: failed

## MAAKTMRKAEELVEKAMKGNDASHDAWHVWRVRDLALSIAREEGLSSNSDSMEIVELAALLHDIGDYKYIRDPSEEKLVENFLDDEGIEETKKTKILTIINGMGFKDELAGVALCESLPEFGVVQDADRLDAIGAIGIARCFTFGGSRNRVLHDPEIKPRTELTKEQYIKREEQTTINHFHEKLLKLKKLMKTEAGKRRAEKRHKFMEEYLKEFYEEWDGST
  protein production: failed

## MWLSEFEIVLRDRVIPNGAVRIEDGRIAEIRDRPVAHADIDGGGRLLLPGFIDMHGDMVEREVEPRIGVHVPMRIGIAELDKKLASCGITTAYAALSFIGASVTSGVLRSEDHTTEIIDTIAGMKDHLLVDHRTHARFEVTFTPAIPTLQKLMDAGRLDLISLMDHTPGQGQYRDVELYIARIAKERGMSVAAASEVVGKRMAGREGQGNVLNALQDLSARARAAGIVLASHDDDTLEKVELVHGLGAALSEFPVTLEAAQEARRLGMHTAMGAPNALRGESYSGNLSARQAYQAGLLDMLASDYHPASILPAVLGLAELRGDGLAAAAALTSANPANALGLTDRGAVEPGLLADFVVADRYPVPRVRATFRAGRMIYGDGTLALAGKAERLGPVAAERLPAA
  protein production: failed

## PQKKVIVLVHGLASSPEAWIALTNDIMGDNILREHYQVWQVFYSTNMPILESRFQIYALLKQAFDSLNPNDPADHNAVLIGHSMGGIISRLLVSQADISQKAFSLVSPYQQAQLKKQPMVYQRLKIQPIPNFDRAIFMSAPHHGTDFADLWFTRAARKIIKLPGAFLGAITDTVTNENIDAKDLLLRIDQGLIQNGPSDLSYKSKFIELTKNINPPSGFVFHSIIGNNTKSDDPEKITDGIVPYKSAHLEGSASEKIIQGGHSIQETPQAVLELRRILRLHLKEHQ
  protein production: failed

## MIKSDDAGKLILRLALGILVIMHGLAKLSSGVGGIAGMLSSHGLPGFLAYFAYVGEIVGPLLIILGIYCRLGALLVVLNMVVAILLAHMGQLFSISNTGGWALELQGMFLFGALALAFMGAGRFSLAGSGGRWN
  protein production: failed

## KKTEWSREEEEKLLHLAKLMPTQWRTIAPIIGRTAAQCLEHYEFLLDKAAQRD
  protein production: not failed

## NDPDADRFAVAVRKDDGEYQMLTGDQVGVLFGHYLLSHASADQRLVGTTIVSSSLLSKIANGFGVESYTTLTGFKWLMNVGIAQSQPDNQFLFAYEEALGYTVGNMVWDKDGLSALVAFAQLTAELAAKGQTIWDRLEQIYREQGFHLN
  protein production: failed

## MAMSGTYVTDVPLKGSAEKHYKRWRSENHLVPEAIGHLIQGVTVHDGDWDSHGTIKIWNYTRDGKEEVLKERIEMDDENMAVTINGLDGHVMEVLKVYVTTLHFIPESKDGCVCKITMVWEKRTEDSPEPIEFMKFVEQMIAHMDDHILQNQE
  protein production: failed

## MEPTAPAPTPAATRNTESTAKIVYVLYLLSFAAGITTLIGVVMAYVNEGDAPEGLRTHYRFQIRTFWIGLLYAVVGGLLTIVGIGALILLFVAVWLVIRCVKGLKWLDQRQPVPNPATWLW
  protein production: failed

## MVVSKMNKDAQMRAAINQKLIETGERERLKELLRAKLIECGWKDQLKAHCKEVIKEKGLEHVTVDDLVAEITPKGRALVPDSVKKELLQRIRTFLAQHASL
  protein production: failed

## MELVAGSYEQVLFGFTVQRGPAKSGHQETWTPVADFTHHSHTASLSVLASNSRYVVSGSKDETIHIYDMKRKVEHGALVHHAGTVTCLKFHGNQHLISGAEDGHICIWDVKRWKCLKTFKAHRGHVTFLSIHPSGKLALSVGTDKTLRTWNLIEGRSAFIKNIKENAHIVEWSPSGGKYIVVVQNKVDVYRLGTASVSGTITNGKRISSVTFLSDSVLAVAGDEEVVRIFDCDSLECLCEFRAHENRVKDMVSFEVPDHHVLVTASNDGFIKMWTLPQDKKVPPSLLCEAKTGARLTCLTVWLDRAANGMASLPPAAEPCPDQPKTIEKESGDTVQEETSEPNSEKSDVSGDSKQPTKGNSPVTAKKRKMATMSEKKRKKKMSLTWQIPDFSSLSECPFDGILHVPVRRKYLLP
  protein production: failed

## MDFFAIDPIGLPHTSLIFYLSSLLIALLLVFLTFQAYRLKSHRYFFLFLQLSQVIGLYTWYVLRGFPLDEALPLYHCRIAMLAIFFLPDRNKFKQLFMVLGIGGTFLALLSPDLYPFRLWHVANVSFYFGHYALLVNGLIYLLRFYDASQLRLLSVVRYLATVNFLLLLVSLATKGNYGFVMDIPVIHTRHLLLNFVIVTSGLTFMVKITEYFYLKFGEAQQLALAFSKEK
  protein production: failed

## MEVKYLKDSEFLVLLLITTFVVITNVYFIAWDDSPQSWDPALHLTYSFVYFNLIKSLQFSEIVKVSNYYPPFFYLSSTPLYFLFGFSEDIAILTNLIYYFILIYSVFQIAKIMKDRNAGVISAVIISAFPALIKFQRVYMIDFALLSLTAFAILLYLRSEDFRNLKYSVLFGIVFGIAELTKWNAFVYIIPSIFALFLVNYFMRCPYCHQIVKNGWKVGYRRFCSKKHLKLYEKSAKTNNTMLNFAISLFVAFLFAAWWYLPNLSTVIMRLTYFANIGGKEGDPAFLTIQGWIYYANSILDAVGAVFLILFAVSIYYLYKNNRYLFLGLLTPIALIYIILTLLSNKDPRYIMPVLPFVAISIGVFVSSLANRKYSTILTFIILLFGLLNISALTFGQPDIDNKILPNPEHPKKEDWKIYALLEAIKESGGEGKIVVVLPDHPYLNGQSLNFYRLKEGYKFAIYNGVYIGYEAFVHNFDKITYIILIEPREHKGVYGDIEKKLYEFFYERKDNFEVVKVFDLPDNSKLYIYKRT
  protein production: failed

## MASNIILFEDIFVVDQLDPDGKKFDKVTRVQATSHNLEMFMHLDVNTEVYPLAVGDKFTLALAPTLNLDGTPDTGYFTPGAKKTLADKYEYIMHGKLYKISERDGKTPKAELYVSFGGLLMLLKGDPAHISHFELDQRLFLLMRKL
  protein production: failed

## MHVEQTRINMQSQGQSHQLPSAAHILLDQNPNSTGSNLVVKQNDIQSLSSVGLLELAHREYQAVDYESAEKHCMQLWRQDSTNTGVLLLLSSIHFQCRRLDKSAQFSTLAIKQNPVLAEAYSNLGNVFKERGQLQEALDNYRRAVRLKPDFIDGYINLAAALVAARDMESAVQAYITALQYNPDLYCVRSDLGNLLKALGRLEEAKACYLKAIETCPGFAVAWSNLGCVFNAQGEIWLAIHHFEKAVTLDPNFLDAYINLGNVLKEARIFDRAVAAYLRALNLSPNNAVVHGNLACVYYEQGLIDLAIDTYRRAIELQPNFPDAYCNLANALKEKGQVKEAEDCYNTALRLCSNHADSLNNLANIKREQGYIEEATRLYLKALEVFPDFAAAHSNLASVLQQQGKLKEALMHYKEAIRIQPTFADAYSNMGNTLKELQDVSGALQCYTRAIQINPAFADAHSNLASIHKDSGNIPEAIQSYRTALKLKPDFPDAYCNLAHCLQIVCDWTDYDIRMKKLVSIVTEQLEKNRLPSVHPHHSMLYPLTHDCRKAIAARHANLCLEKVHVLHKKPYNFLKKLPTKGRLRIGYLSSDFGNHPTSHLMQSVPGLHDRSKVEIFCYALSPDDGTTFRHKISRESENFVDLSQIPCNGKAADKIFNDGIHILVNMNGYTKGARNEIFALRPAPIQVMWLGYPGTSGASFMDYIITDSVTSPLELAYQYSEKLSYMPHTYFIGDHKQMFPHLKERIIVCDKQQSSVVDNVTVINATDLSPLVENTDVKEIKEVVNAQKPVEITHKVAELPNTTQIVSMIATGQVQTSLNGVVVQNGLATTQTNNKAATGEEVPQNIVITTRRQYMLPDDAVVYCNFNQLYKIDPQTLESWVEILKNVPKSVLWLLRFPAVGEQNIKKTVSDFGISPDRVIFSNVAAKEEHVRRGQLADICLDTPLCNGHTTSMDVLWTGTPVVTLPGETLASRVAASQLATLGCPELIARTREEYQNIAIRLGTKKEYLKALRAKVWKARVESPLFDCSQYAKGLEKLFLRMWEKYENGELPDHISAV
  protein production: failed
